Test results published in the supplement of paper PMC10567573.

B1: SPOPL (parent)
chain: PDDKLTLFCEVSVVQDSVNISGHT
B2: KLHL14 (parent)
chain: NETGYLSSVECYNLETNEWRYVSS

Variants of: B1
Experiment: protein stability index of a GFP-peptide fusion (GPS, HEK-293T) (PSI 1-6); higher = more stable
Details: c terminus: a fixed tail appended
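Further: lentivirally expressed fusions sorted by FACS into six bins by GFP to DsRed ratio, PSI derived from sequencing read proportions per bin multiplied by bin number.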

Row | Variant | protein stability index
1 | PDDKLTCFCEVSVVQDSVNISGHT [L7C] | 2.72
2 | PDDKLTRFCEVSVVQDSVNISGHT [L7R] | 3.94
3 | PDDKLTQFCEVSVVQDSVNISGHT [L7Q] | 4.62
4 | PDDKLTAFCEVSVVQDSVNISGHT [L7A] | 4.2
5 | PDDKLTEFCEVSVVQDSVNISGHT [L7E] | 4.9
6 | PDDKLTPFCEVSVVQDSVNISGHT [L7P] | 4.52
7 | PDDKLTIFCEVSVVQDSVNISGHT [L7I] | 1.25
8 | PDDKLTVFCEVSVVQDSVNISGHT [L7V] | 1.92
9 | PDDKLTHFCEVSVVQDSVNISGHT [L7H] | 3.79
10 | PDDKLTDFCEVSVVQDSVNISGHT [L7D] | 4.88
11 | PDDKLTTFCEVSVVQDSVNISGHT [L7T] | 3.88
12 | PDDKLTMFCEVSVVQDSVNISGHT [L7M] | 2.68
13 | PDDKLTWFCEVSVVQDSVNISGHT [L7W] | 1.75
14 | PDDKLTYFCEVSVVQDSVNISGHT [L7Y] | 2.72
15 | PDDKLTNFCEVSVVQDSVNISGHT [L7N] | 4.32
16 | PDDKLTSFCEVSVVQDSVNISGHT [L7S] | 3.49
17 | PDDKLTGFCEVSVVQDSVNISGHT [L7G] | 4.28
18 | PDDKLTLFNEVSVVQDSVNISGHT [C9N] | 4.34
19 | PDDKLTLFMEVSVVQDSVNISGHT [C9M] | 2.13
20 | PDDKLTLFGEVSVVQDSVNISGHT [C9G] | 4.42
21 | PDDKLTLFEEVSVVQDSVNISGHT [C9E] | 4.47
22 | PDDKLTLFKEVSVVQDSVNISGHT [C9K] | 4.34

Row | Variant | protein stability index
23 | PDDKLTLFDEVSVVQDSVNISGHT [C9D] | 4.71
24 | PDDKLTLFFEVSVVQDSVNISGHT [C9F] | 2.35
25 | PDDKLTLFLEVSVVQDSVNISGHT [C9L] | 3.25
26 | PDDKLTLFIEVSVVQDSVNISGHT [C9I] | 3.05
27 | PDDKLTLFHEVSVVQDSVNISGHT [C9H] | 4.09
28 | PDDKLTLFAEVSVVQDSVNISGHT [C9A] | 3.47
29 | PDDKCTLFCEVSVVQDSVNISGHT [L5C] | 2.88
30 | PDDKVTLFCEVSVVQDSVNISGHT [L5V] | 1.81
31 | PDDKMTLFCEVSVVQDSVNISGHT [L5M] | 2.21
32 | PDDKETLFCEVSVVQDSVNISGHT [L5E] | 3.9
33 | PDDKATLFCEVSVVQDSVNISGHT [L5A] | 3.66
34 | PDDKTTLFCEVSVVQDSVNISGHT [L5T] | 3.33
35 | PDDKSTLFCEVSVVQDSVNISGHT [L5S] | 3.63
36 | PDDKFTLFCEVSVVQDSVNISGHT [L5F] | 1.52
37 | PDDKITLFCEVSVVQDSVNISGHT [L5I] | 1.88
38 | PDDKQTLFCEVSVVQDSVNISGHT [L5Q] | 3.73
39 | PDDKDTLFCEVSVVQDSVNISGHT [L5D] | 4.41
40 | PDDKYTLFCEVSVVQDSVNISGHT [L5Y] | 2.28
41 | PDDKWTLFCEVSVVQDSVNISGHT [L5W] | 1.26
42 | PDDKGTLFCEVSVVQDSVNISGHT [L5G] | 3.07
43 | PDDKKTLFCEVSVVQDSVNISGHT [L5K] | 3.82
44 | PDDKNTLFCEVSVVQDSVNISGHT [L5N] | 3.95

Row | Variant | protein stability index
45 | PDDKHTLFCEVSVVQDSVNISGHT [L5H] | 3.96
46 | PDDKRTLFCEVSVVQDSVNISGHT [L5R] | 3.85
47 | PDDKPTLFCEVSVVQDSVNISGHT [L5P] | 4.1
48 | QDDKLTLFCEVSVVQDSVNISGHT [P1Q] | 2.02
49 | FDDKLTLFCEVSVVQDSVNISGHT [P1F] | 2.36
50 | HDDKLTLFCEVSVVQDSVNISGHT [P1H] | 2.18
51 | ADDKLTLFCEVSVVQDSVNISGHT [P1A] | 1.81
52 | WDDKLTLFCEVSVVQDSVNISGHT [P1W] | 2.11
53 | IDDKLTLFCEVSVVQDSVNISGHT [P1I] | 3.71
54 | KDDKLTLFCEVSVVQDSVNISGHT [P1K] | 2.02
55 | LDDKLTLFCEVSVVQDSVNISGHT [P1L] | 2.2
56 | EDDKLTLFCEVSVVQDSVNISGHT [P1E] | 2.2
57 | VDDKLTLFCEVSVVQDSVNISGHT [P1V] | 1.36
58 | CDDKLTLFCEVSVVQDSVNISGHT [P1C] | 1.93
59 | YDDKLTLFCEVSVVQDSVNISGHT [P1Y] | 1.69
60 | TDDKLTLFCEVSVVQDSVNISGHT [P1T] | 2
61 | DDDKLTLFCEVSVVQDSVNISGHT [P1D] | 2.17
62 | NDDKLTLFCEVSVVQDSVNISGHT [P1N] | 2.42
63 | RDDKLTLFCEVSVVQDSVNISGHT [P1R] | 2.1
64 | GDDKLTLFCEVSVVQDSVNISGHT [P1G] | 1.99
65 | MDDKLTLFCEVSVVQDSVNISGHT [P1M] | 1.81
66 | SDDKLTLFCEVSVVQDSVNISGHT [P1S] | 2.05

Variants of: B2
Experiment: as above
Details: c terminus: a fixed tail appended

Row | Variant | protein stability index
67 | NETGYLSSVECYNLETNEWRYVSQ [S24Q] | 3.6
68 | NETGYLSSVECYNLETNEWRYVSH [S24H] | 3.82
69 | NETGYLSSVECYNLETNEWRYVSA [S24A] | 4.1
70 | NETGYLSSVECYNLETNEWRYVSV [S24V] | 3.38
71 | NETGYLSSVECYNLETNEWRYVSL [S24L] | 3.41
72 | NETGYLSSVECYNLETNEWRYVSW [S24W] | 3.44
73 | NETGYLSSVECYNLETNEWRYVSC [S24C] | 4
74 | NETGYLSSVECYNLETNEWRYVSK [S24K] | 4.28
75 | NETGYLSSVECYNLETNEWRYVSN [S24N] | 3.91
76 | NETGYLSSVECYNLETNEWRYVSE [S24E] | 3.77
77 | NETGYLSSVECYNLETNEWRYVSF [S24F] | 3.94
78 | NETGYLSSVECYNLETNEWRYVSP [S24P] | 4.2
79 | NETGYLSSVECYNLETNEWRYVSD [S24D] | 3.83
80 | NETGYLSSVECYNLETNEWRYVSR [S24R] | 3.61
81 | NETGYLSSVECYNLETNEWRYVST [S24T] | 3.65
82 | NETGYLSSVECYNLETNEWRYVSY [S24Y] | 3.19
83 | NETGYLSSVECYNLETNEWRYVSI [S24I] | 3.02
84 | NETGYLSSVECYNLETNEWRYVSG [S24G] | 3.82
85 | NETGYLSSVECYNLETNEWRYVSM [S24M] | 3.93
86 | NETGYLSSVECYNLETNEWRYVQS [S23Q] | 3.73
87 | NETGYLSSVECYNLETNEWRYVVS [S23V] | 3.76
88 | NETGYLSSVECYNLETNEWRYVLS [S23L] | 2.07
89 | NETGYLSSVECYNLETNEWRYVRS [S23R] | 2.87
90 | NETGYLSSVECYNLETNEWRYVMS [S23M] | 3.59
91 | NETGYLSSVECYNLETNEWRYVTS [S23T] | 3.38
92 | NETGYLSSVECYNLETNEWRYVPS [S23P] | 3.39
93 | NETGYLSSVECYNLETNEWRYVYS [S23Y] | 3.71
94 | NETGYLSSVECYNLETNEWRYVNS [S23N] | 3.98
